Reference: paper PMC3675627, “Structures of Arenaviral Nucleoproteins with Triphosphate dsRNA Reveal a Unique Mechanism of Immune Suppression*”

B1: 8-bp 5'-ppp dsRNA (input) (dsRNA)
RNA 1: GGGCGCCC
RNA 2: GGGCGCCC
modifications: 5'-triphosphate
B2: cleaved intermediate of the 5'-ppp dsRNA (4-nt cleaving strand, 8-nt complementary strand) (dsRNA)
RNA 1: GGGC
RNA 2: GGGCGCCC
modifications: 5'-triphosphate

Legend:
[1] = target: T1, LASV NP-C (catalytically active exoribonuclease domain) (Lassa virus, UniProt P13699 364-569); test: […], pH 5.5, room temperature; […]; conditions: protein: recombinant; blunt; self-complementary, 2 copies of one strand
T1 sequence (P13699 364-569): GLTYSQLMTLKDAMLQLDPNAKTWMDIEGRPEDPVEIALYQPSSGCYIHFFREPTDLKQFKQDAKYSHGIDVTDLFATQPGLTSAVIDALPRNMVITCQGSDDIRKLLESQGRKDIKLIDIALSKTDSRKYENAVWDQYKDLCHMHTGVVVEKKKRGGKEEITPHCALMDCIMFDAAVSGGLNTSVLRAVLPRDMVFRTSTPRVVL

[2] = target: T1, LASV NP-C (catalytically active …); test: X-ray crystallography, 1.68 A; […], pH 5.5, room temperature; […]; conditions: protein: recombinant; 5' overhang 4 nt on complementary strand

Binder	binding result [1]	binding result [2]
B1	binds	–
B2	–	binds
